B1: pegylated variant G: variant G pegylated with 20 kD methoxy-poly(ethyleneglycol) derivative on lysine residues (conjugate)
chain: IVGGYDCEENSVPYHVSLNSDSNSTTICGGALINEQWVVTAGHCYSFLPLDKSRIQVRLGVHSTGALEGNEQIINAAKIIRHPQYDWKTLNNDIMLIKLSSPAVINAHVSTISLPTAPPATGTKCLISGWGNSKDPYKPSSGPSTADYPGEVQCLDAPVLSQTKCEASYPGKITSNMFCAGFLEGGKDSCQGDSGGPVVHNGQLQGVVSWGEGCAQKNKPGVYTNVYNYVEWIQDTIAANS
B2: pegylated variant E: Variant E modified by chemical attachment of 20 kDa poly(ethyleneglycol) (conjugate)
chain: IVGGYDCEENSVPYHVSLNSGSNSTTICGGALINEQWVVTAGHCYAFFPADKSRIQVRLGVHSTGALEGNEQIINAAKIIRHPQYDWKTLNNDIMLIKLSSPAVINAHVSTISLPTAPPATGTKCLISGWGNSKDPYKPSSRADYPGEVQCLDAPVLSQTKCEASYPGKITSNMFCAGFLEGGKDSCQGDSGGPVVHNGQLQGVVSWGEGCAQKNKPGVYTNVYNYVEWIQDTIAANS

Columns and labels:
transmembrane TNF-alpha = target: T1, transmembrane TNF-alpha (Homo sapiens, UniProt P01375, DEL77-88); assay: Membrane-bound TNF-alpha assay: cell line expressing non-cleavable TNF plus reporter cells, apoptosis read-out; assay type: cell-based; settings: incubation at different concentrations for 4 h, then reporter cell line added
T1 construct: The transmembrane TNF induces apoptosis in these TNF-susceptible cells; expressed in transfected cells
T1 sequence (P01375 with tags, fused parts or gaps DEL77-88): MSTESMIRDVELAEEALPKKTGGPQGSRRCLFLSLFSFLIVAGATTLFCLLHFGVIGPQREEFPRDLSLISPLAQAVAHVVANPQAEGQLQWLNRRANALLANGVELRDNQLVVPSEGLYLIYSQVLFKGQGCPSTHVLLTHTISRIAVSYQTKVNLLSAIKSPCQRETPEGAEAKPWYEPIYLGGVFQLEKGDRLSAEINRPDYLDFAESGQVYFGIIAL

[1] = tested on: human TNF-alpha transgenic mouse model of arthritis; assay: Efficacy in human TNF-alpha transgenic mouse model of arthritis (Tg197); assay type: in vivo; settings: Tg197 mice, six weeks old, established disease; 50 mg/kg intraperitoneally three times per week for five weeks
Method: (§1) • Figure 1: Mass spectrometric verification of the proteolytic cleavage site of TNF-alpha. TNF-alpha was digested at a concentration of 1 mg/ml with protease variant E for 1 h at 37 °C in PBS buffer. The short fragment of the cleavage reaction was isolated on a C18-reversed phase HPLC-column and the collected fraction electrosprayed into the orifice of the ion-trap mass spectrometer. • Figure 2: Deconvoluted mass spectrometric analysis. The small cleavage product has been isolated and the determined mass represents the first 32 amino acids of SEQ ID NO: 11, confirming the targeted cleavage site. • Figure 3: Inactivation of recombinant human TNF-alpha activity by a panel of variants in a cell-based caspase assay. […] Detection of hTNFα-induced caspase activation was measured by a luminescence based read-out. […] (A) depicts maximal detected inactivation of hTNFα; (B) depicts dose dependency of the effects of the hTNFα specific protease. • Figure 4: Effect of pegylation on activity. […] The activity of the resulting pegylated protease was assessed against a recombinant hTNFα (A) or by a caspase assay that measures levels of remaining TNF-alpha activity following digestion of the cytokine by the protease (B). […] Cleavage is assessed by following the changes in the fluorescent signal. […] Efficacy was determined by using a standard clinical scoring system for ankle joint inflammation. […]

hTNFα = hTNFα (Homo sapiens, UniProt P01375); assay: TNF-alpha dependent cell-based caspase assay (Caspase-Glo 3/7) on WEHI 13VAR cells; design: species or system mouse; settings: 20 kDa PEG, protease 50 and 100 µg/ml, hTNFα 1 ng/ml, 4 h, 37 °C
hTNFα, sequence (P01375 77-233 limits assumed): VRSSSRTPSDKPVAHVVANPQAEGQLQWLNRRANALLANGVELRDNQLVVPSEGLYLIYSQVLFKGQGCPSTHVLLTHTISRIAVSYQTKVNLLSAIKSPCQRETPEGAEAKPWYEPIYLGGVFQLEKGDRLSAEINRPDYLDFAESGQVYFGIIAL
Method: as §1

synthetic peptide = assay: Activity assay of pegylated versus non-pegylated protease against a synthetic peptide (Fig. 4A); assay type: biochemical; settings: 20 kDa PEG; synthetic peptide / recombinant hTNFα
Method: as §1

Molecule	inactivation of transmembrane TNF-alpha (inhibition of apoptosis of reporter cells) (transmembrane TNF-alpha)	clinical score for ankle joint inflammation (arthritis score 0 to 3) [1]	remaining TNF-alpha activity after digestion, pegylated compared with non-pegylated variant (Fig. 4B) (hTNFα)	activity of pegylated protease compared with non-pegylated variant (Fig. 4A) (synthetic peptide)
B1	do not inhibit apoptosis			
B2		Efficacy of pegylated TNF-alpha specific protease variant E is demonstrated	slight reduction in specific activity	slight reduction in specific activity
